The values that follow are results of earlier work, collected in paper PMC7669891.

In data set [1] the target is p53 CTD (Homo sapiens) (UniProt P04637). In words: FP.
The target is the same in data set [2]. Nature of the data set: FP. The source holds these as a separate data set.
The target is the same in data set [3]. In words: FP. This is another data set of the same source.
Data set [4] has the same target. Nature of the data set: FP. The source holds these as a separate data set.
Data set [5] shares this target. In words: FP. The source holds these as a separate data set.
Data set [6] has the same target. Nature of the data set: FP. The source holds these as a separate data set.
The target is the same in data set [7]. Nature of the data set: FP. The source holds these as a separate data set.
Data set [8] shares this target. In words: FP. This is another data set of the same source.
The target is the same in data set [9]. In words: FP. This is another data set of the same source.
Data set [10] shares this target. Nature of the data set: FP. The source holds these as a separate data set.
The target is the same in data set [11]. In words: FP. This is another data set of the same source.
Data set [12] shares this target. Nature of the data set: FP. This is another data set of the same source.
Data set [13] shares this target. In words: ITC. (In general: Isothermal titration calorimetry measures the heat released or taken up as one component is titrated into another.)
Data set [14] has the same target. Nature of the data set: FP. This is another data set of the same source.
Data set [15] shares this target. Nature of the data set: FP. The source holds these as a separate data set.
Data set [16] shares this target. Nature of the data set: FP. The source holds these as a separate data set.
For data set [17] the target is unchanged. Nature of the data set: FP. This is another data set of the same source.
For data set [18] the target is unchanged. In words: FP. This is another data set of the same source.
The target is the same in data set [19]. Nature of the data set: FP. The source holds these as a separate data set.
Data set [20] has the same target. In words: FP. This is another data set of the same source.
The target is the same in data set [21]. In words: FP. This is another data set of the same source.
The target is the same in data set [22]. Nature of the data set: FP. This is another data set of the same source.
In data set [23] the target is 14-3-3σ (Homo sapiens) (UniProt P31947). In words: FP.
In a further data set the target is 14-3-3τ (Homo sapiens) (UniProt P27348). In words: FP.
A further data set has as its target 14-3-3γ (Homo sapiens) (UniProt P61981). Nature of the data set: FP.
For another data set, the target named is 14-3-3ε (Homo sapiens) (UniProt P62258). Nature of the data set: FP.
Data set [24] deals with 14-3-3σ (Homo sapiens) (UniProt P31947). In words: ITC.

14-3-3γ, sequence (P61981 2-247): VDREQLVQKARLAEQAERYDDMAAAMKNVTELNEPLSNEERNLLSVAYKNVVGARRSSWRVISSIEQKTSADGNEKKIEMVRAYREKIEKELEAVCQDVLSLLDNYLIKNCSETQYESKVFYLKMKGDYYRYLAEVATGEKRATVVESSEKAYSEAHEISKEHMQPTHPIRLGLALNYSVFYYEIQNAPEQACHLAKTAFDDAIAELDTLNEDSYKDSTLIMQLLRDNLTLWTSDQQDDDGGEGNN
14-3-3γ (Homo sapiens), sequence (P61981 2-247): as above
p53 CTD (Homo sapiens), sequence (P04637 363-393): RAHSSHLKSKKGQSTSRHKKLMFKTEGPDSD
14-3-3ε (Homo sapiens), sequence (P62258 whole entry): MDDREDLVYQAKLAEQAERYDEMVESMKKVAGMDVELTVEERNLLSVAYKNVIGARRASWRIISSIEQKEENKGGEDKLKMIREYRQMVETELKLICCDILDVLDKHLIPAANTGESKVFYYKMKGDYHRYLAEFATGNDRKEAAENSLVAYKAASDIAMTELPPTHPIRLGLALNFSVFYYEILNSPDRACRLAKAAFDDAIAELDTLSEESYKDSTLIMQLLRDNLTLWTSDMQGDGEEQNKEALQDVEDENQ
14-3-3ε, sequence (P62258 whole entry): as above
14-3-3τ (Homo sapiens), sequence (P27348 whole entry): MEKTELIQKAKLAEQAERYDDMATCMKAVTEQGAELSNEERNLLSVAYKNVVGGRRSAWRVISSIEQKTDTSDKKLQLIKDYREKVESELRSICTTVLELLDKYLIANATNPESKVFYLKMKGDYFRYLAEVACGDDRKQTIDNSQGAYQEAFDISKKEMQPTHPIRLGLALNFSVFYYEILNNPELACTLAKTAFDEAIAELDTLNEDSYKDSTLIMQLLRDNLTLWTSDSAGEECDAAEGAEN
14-3-3τ, sequence (P27348 whole entry): as above
p53 CTD pT387 peptide, sequence (P04637 361-393): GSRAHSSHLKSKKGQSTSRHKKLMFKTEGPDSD
p53 CTD pS366 peptide, sequence (P04637 361-393): as above
p53 CTD pS378 peptide, sequence (P04637 361-393): as above
p53 CTD pS366/pT387 peptide, sequence (P04637 361-393): as above
p53 CTD pS378/pT387 peptide, sequence (P04637 361-393): as above
p53 CTD pS366/pS378 peptide, sequence (P04637 361-393): as above
14-3-3σ, sequence (P31947 whole entry): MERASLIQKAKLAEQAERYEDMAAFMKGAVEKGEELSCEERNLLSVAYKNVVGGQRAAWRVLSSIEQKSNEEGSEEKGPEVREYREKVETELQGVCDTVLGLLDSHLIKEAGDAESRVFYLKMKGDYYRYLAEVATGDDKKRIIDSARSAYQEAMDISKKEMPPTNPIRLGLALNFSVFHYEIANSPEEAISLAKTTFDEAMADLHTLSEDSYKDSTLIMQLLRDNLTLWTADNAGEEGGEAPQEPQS
14-3-3σ (Homo sapiens), sequence (P31947 whole entry): as above

For 14-3-3γ (from UniProt P61981), the dissociation constant Kd in the data set with p53 CTD (Homo sapiens) [1] was 20 µM; in the data set with p53 CTD (Homo sapiens) [2], 17 µM; in the data set with p53 CTD (Homo sapiens) [3], 0.45 µM; in the data set with p53 CTD (Homo sapiens) [4], 14 µM; with p53 CTD (Homo sapiens) [5], 0.48 µM; with p53 CTD (Homo sapiens) [6] it was 0.14 µM.
In the case of 14-3-3ε (from UniProt P62258), the dissociation constant (Kd) was 0.8 µM with p53 CTD (Homo sapiens) [7]; 18 µM with p53 CTD (Homo sapiens) [8]; 0.51 µM with p53 CTD (Homo sapiens) [9]; 16 µM with p53 CTD (Homo sapiens) [3]; 11 µM with p53 CTD (Homo sapiens) [10]; 0.18 µM with p53 CTD (Homo sapiens) [11].
On to 14-3-3σ (from UniProt P31947), for which the equilibrium dissociation constant (Kd) with p53 CTD (Homo sapiens) [3] is 23 µM; with p53 CTD (Homo sapiens) [12], 3.5 µM; with p53 CTD (Homo sapiens) [13], 16.3 µM; with p53 CTD (Homo sapiens) [14], 24 µM; with p53 CTD (Homo sapiens) [15], 22 µM; with p53 CTD (Homo sapiens) [16] it was 2.2 µM. Besides, the Kd with p53 CTD (Homo sapiens) [17] is 7.3 µM.
As for 14-3-3τ (from UniProt P27348), the Kd with p53 CTD (Homo sapiens) [18] is 27 µM; with p53 CTD (Homo sapiens) [3], 6.2 µM; with p53 CTD (Homo sapiens) [19], 24 µM; with p53 CTD (Homo sapiens) [20], 28 µM; in the data set with p53 CTD (Homo sapiens) [21], 3.3 µM; with p53 CTD (Homo sapiens) [22], 2.1 µM.
In the case of “p53 CTD pS366 peptide (from UniProt P04637)”, the Kd with 14-3-3σ (Homo sapiens) [23] is 24 µM; with 14-3-3τ (Homo sapiens), 28 µM; in the data set with 14-3-3γ (Homo sapiens) it was 17 µM; with 14-3-3ε (Homo sapiens), 16 µM.
For “p53 CTD pS366/pS378 peptide (from UniProt P04637)”, the Kd with 14-3-3σ (Homo sapiens) [23] was 2.2 µM; with 14-3-3τ (Homo sapiens), 2.1 µM; with 14-3-3γ (Homo sapiens), 0.48 µM; with 14-3-3ε (Homo sapiens), 0.51 µM.
For the substance “p53 CTD pS366/pT387 peptide (from UniProt P04637)”, the equilibrium dissociation constant (Kd) in the data set with 14-3-3σ (Homo sapiens) [23] was 3.5 µM; in the data set with 14-3-3τ (Homo sapiens), 6.2 µM; with 14-3-3γ (Homo sapiens) it was 0.14 µM; with 14-3-3ε (Homo sapiens) it was 0.18 µM.
As to “p53 CTD pS378 peptide (from UniProt P04637)”, the dissociation constant Kd was 22 µM with 14-3-3σ (Homo sapiens) [23], 27 µM in the data set with 14-3-3τ (Homo sapiens), 20 µM with 14-3-3γ (Homo sapiens) and 18 µM in the data set with 14-3-3ε (Homo sapiens).
As for “p53 CTD pS378/pT387 peptide (from UniProt P04637)”, the Kd was 7.3 µM in the data set with 14-3-3σ (Homo sapiens) [23], 3.3 µM with 14-3-3τ (Homo sapiens), 0.45 µM with 14-3-3γ (Homo sapiens) and 0.8 µM in the data set with 14-3-3ε (Homo sapiens).
With “p53 CTD pT387 peptide (from UniProt P04637)”, the Kd is 23 µM with 14-3-3σ (Homo sapiens) [23], 24 µM in the data set with 14-3-3τ (Homo sapiens), 14 µM in the data set with 14-3-3γ (Homo sapiens) and 11 µM with 14-3-3ε (Homo sapiens).
As for p53 pT387 peptide (from UniProt P04637), the Kd with 14-3-3σ (Homo sapiens) [24] is 16.3 µM.

Usually Kd stands for the concentration at which binding is half-saturated.
